Experimental data published in publication PMC11391413.

Experiments:
full-length GRB2 (human) = full-length GRB2 (human) (UniProt P62993); assay: NMR titration; 15N-labelled full-length GRB2 (about 200-270 uM) titrated with SOS1 PRM peptides (up to 1:12 S4, 1:36 S5 and S9, 1:24 S10), 2D 1H-15N HSQC, 25 °C, 20 mM sodium phosphate, 0.05% NaN3; global fit of residues with CSP over 0.03 ppm to an independent two-site model (values in parentheses: single-binding site model)
[1] = molecular target: SOS1 S5 (Homo sapiens), Q07889; assay: NMR

## PKLPPKTYKREH [SOS1 S10 PRM (…)]
full-length GRB2 (human)
  KD1 (NSH3 site, independent two-site model): 483 µM
  KD2 (CSH3 site, independent two-site model): 579 µM

## DSPPAIPPRQPT [SOS1 S5 PRM (…)]
full-length GRB2 (human)
  KD1 (NSH3 site, independent two-site model): 40.9 µM
  KD2 (CSH3 site, independent two-site model): 901 µM
  KD for NSH3, single-binding site model: 44.9 µM

B1: GRB2 NSH3, P62993 (protein)
chain: MEAIAKYDFKATADDELSFKRGDILKVLNEECDQNWYKAELNGKDGFIPKNYIEMKPH
[1]
  Kd: 40.9 µM

## IAGPPVPPRQST [SOS1 S9 PRM (…)]
full-length GRB2 (human)
  KD1 (NSH3 site, independent two-site model): 28.4 µM
  KD2 (CSH3 site, independent two-site model): 516 µM
  KD for NSH3, single-binding site model: 35 µM

B2: GRB2 CSH3, P62993 (protein)
chain: QQPTYVQALFDFDPQEDGELGFRRGDFIHVMDNSDPNWWKGACHGQTGMFPRNYVTPVNR
[1]
  Kd: 901 µM
